Laboratory results from publication PMC5745148, “Mechanistic Insights into Autoinhibition of the Oncogenic Chromatin Remodeler ALC1” (Molecular Cell, 2017).
Values belong to the binder of their own block, whether it stands above or below them.

How the values were obtained:
Conditions in all cases: both partners purified
[1] = target: T1, ALC1^cat (ATPase motor of human ALC1, residues 16-612), 6xHis-tagged (human, UniProt Q86WJ1 16-612); test: SEC; 7 nmol each of ALC1^cat and ALC1^macro mixed, 10 min on ice, Superdex 200 10/300 GL, 20 mM MES pH 6.5, 300 mM NaCl, 10% glycerol, 0.5 mM TCEP; peak fractions on SDS-PAGE
T1 construct: human ALC1 (Amplified in liver cancer 1; CHD1L), residues 16-612; Made by PCR-based mutagenesis of the ALC1^fl construct (pNIC-CH2); also called ALC1/CHD1L variant that lacks the macro domain; source: E. coli Rosetta 2 (DE3), purified (HisTrap, Q HP, Superdex 200)
T1 sequence (looked up): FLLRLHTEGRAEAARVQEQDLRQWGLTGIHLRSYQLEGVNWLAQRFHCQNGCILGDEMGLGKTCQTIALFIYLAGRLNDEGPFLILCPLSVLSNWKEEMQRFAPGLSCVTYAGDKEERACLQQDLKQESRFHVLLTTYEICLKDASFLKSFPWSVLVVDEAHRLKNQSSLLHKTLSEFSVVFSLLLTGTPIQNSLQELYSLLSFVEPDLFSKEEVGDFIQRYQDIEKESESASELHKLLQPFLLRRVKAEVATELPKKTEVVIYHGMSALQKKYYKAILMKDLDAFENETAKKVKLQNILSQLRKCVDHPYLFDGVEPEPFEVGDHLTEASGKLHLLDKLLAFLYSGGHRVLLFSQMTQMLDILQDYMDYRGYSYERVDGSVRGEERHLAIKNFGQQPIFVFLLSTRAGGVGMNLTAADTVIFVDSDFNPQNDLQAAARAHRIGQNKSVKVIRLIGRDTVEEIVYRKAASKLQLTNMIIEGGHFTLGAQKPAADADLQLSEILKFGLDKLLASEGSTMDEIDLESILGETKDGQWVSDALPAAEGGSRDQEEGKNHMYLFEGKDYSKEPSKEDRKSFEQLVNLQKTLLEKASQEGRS

[2] = target: T1, ALC1^cat (ATPase motor of human ALC1, …); test: pull-down; 5 μM 6xHis-ALC1^cat and 5 μM ALC1^macroΔ6xHis, Ni-NTA agarose, 1 h at 4°C, 20 mM HEPES pH 7.5, 300 mM NaCl, 10% glycerol, 20 mM imidazole, 0.5 mM TCEP; where indicated 5 μM GST-PARP1 pre-incubated with dsDNA and NAD+; eluate on SDS-PAGE
[3] = target: T2, PARylated GST-tagged human PARP1 (human, UniProt P09874 1-1014, poly(ADP-ribose) (PARylated by incubation with dsDNA and NAD+; sites not stated)); test: as above
T2 construct: human PARP1; also called PARylated PARP1; GST-tagged PARP1 (BPS Bioscience); source: bought: BPS Bioscience; incubated with 230 bp dsDNA and NAD+ for 5 min at 37°C
T2 sequence (P09874 whole entry): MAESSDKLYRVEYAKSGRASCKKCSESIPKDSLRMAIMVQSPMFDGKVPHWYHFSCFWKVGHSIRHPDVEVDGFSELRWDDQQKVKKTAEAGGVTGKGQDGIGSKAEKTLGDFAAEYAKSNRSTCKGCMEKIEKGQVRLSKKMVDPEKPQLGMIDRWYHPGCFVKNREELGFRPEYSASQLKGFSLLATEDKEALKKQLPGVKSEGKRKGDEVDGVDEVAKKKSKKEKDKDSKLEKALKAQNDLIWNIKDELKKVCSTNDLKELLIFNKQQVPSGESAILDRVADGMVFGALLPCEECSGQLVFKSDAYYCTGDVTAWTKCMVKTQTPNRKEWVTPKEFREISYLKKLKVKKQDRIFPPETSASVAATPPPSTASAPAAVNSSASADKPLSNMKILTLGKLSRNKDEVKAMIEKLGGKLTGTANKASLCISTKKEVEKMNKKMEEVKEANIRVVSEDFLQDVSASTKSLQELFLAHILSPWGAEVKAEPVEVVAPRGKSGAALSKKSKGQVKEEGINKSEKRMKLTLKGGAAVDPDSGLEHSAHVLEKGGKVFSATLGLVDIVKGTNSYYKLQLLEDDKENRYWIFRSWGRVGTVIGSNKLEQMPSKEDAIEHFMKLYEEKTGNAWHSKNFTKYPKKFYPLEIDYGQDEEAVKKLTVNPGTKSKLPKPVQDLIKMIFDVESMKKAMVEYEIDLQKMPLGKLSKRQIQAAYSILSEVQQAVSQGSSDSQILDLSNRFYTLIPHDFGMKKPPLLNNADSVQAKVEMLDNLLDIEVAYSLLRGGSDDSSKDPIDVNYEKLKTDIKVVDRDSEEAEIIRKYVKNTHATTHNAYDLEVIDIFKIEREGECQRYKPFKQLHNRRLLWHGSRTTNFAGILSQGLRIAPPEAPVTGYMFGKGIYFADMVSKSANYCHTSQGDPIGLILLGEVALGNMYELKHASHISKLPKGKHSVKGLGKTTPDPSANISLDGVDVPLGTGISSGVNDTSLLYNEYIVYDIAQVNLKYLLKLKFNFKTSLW

[4] = target: T3, PARylated (activated) human PARP1 used in HDX-MS (human, UniProt P09874 1-1014, poly(ADP-ribose) (PARylated; sites not stated)); test: HDX-MS; ALC1^fl with and without PARylated or non-PARylated PARP1; 50 mM Tris, 50 mM NaCl, 5 mM MgCl2, 1.5 μM 239 bp dsDNA, 1 mM ATP, 1 mM TCEP pH 7.9, ~70% D2O, 23°C, five time points
T3 construct: human PARP1; also called PARylated PARP1
T3 sequence (P09874 whole entry): as above

binding result [1]: binds
B1: ALC1^macro (macro domain construct of human ALC1, residues 613-879), 6xHis-tagged (domain or fragment, UniProt Q86WJ1 613-879, looked up)
chain: LRNKGSVLIPGLVEGSTKRKRVLSPEELEDRQKKRQEAAAKRRRLIEEKKRQKEEAEHKKKMAWWESNNYQSFCLPSEESEPEDLENGEESSAELDYQDPDATSLKYVSGDVTHPQAGAEDALIVHCVDDSGHWGRGGLFTALEKRSAEPRKIYELAGKMKDLSLGGVLLFPVDDKESRNKGQDLLALIVAQHRDRSNVLSGIKMAALEEGLKKIFLAAKKKKASVHLPRIGHATKGFNWYGTERLIRKHLAARGIPTYIYYFPRSK
notes: human ALC1 (CHD1L), residues 613-879 (linker and macro domain); Made from the ALC1^fl construct (pNIC-CH2); no cleavage of the tag is described for this version; source: E. coli Rosetta 2 (DE3), purified (HisTrap, Q HP/SP HP, Superdex 200)

binding result [2]: binds | binding result [3]: binds
B2: ALC1^macroΔ6xHis (macro domain construct of human ALC1, residues 613-879, 6xHis tag removed by TEV) (domain or fragment, UniProt Q86WJ1 613-879, looked up)
chain: LRNKGSVLIPGLVEGSTKRKRVLSPEELEDRQKKRQEAAAKRRRLIEEKKRQKEEAEHKKKMAWWESNNYQSFCLPSEESEPEDLENGEESSAELDYQDPDATSLKYVSGDVTHPQAGAEDALIVHCVDDSGHWGRGGLFTALEKRSAEPRKIYELAGKMKDLSLGGVLLFPVDDKESRNKGQDLLALIVAQHRDRSNVLSGIKMAALEEGLKKIFLAAKKKKASVHLPRIGHATKGFNWYGTERLIRKHLAARGIPTYIYYFPRSK
notes: human ALC1 (CHD1L), residues 613-879; A TEV-cleavage site was added to the ALC1^macro construct; also called ALC1^macro6xΔHis; non-tagged macro domain; source: E. coli Rosetta 2 (DE3), purified; TEV cleavage of the 6xHis tag, second HisTrap flow-through

binding result [4]: binds
B3: ALC1^fl (essentially full-length human ALC1, residues 16-879), 6xHis-tagged (enzyme, UniProt Q86WJ1 16-879, looked up)
chain: FLLRLHTEGRAEAARVQEQDLRQWGLTGIHLRSYQLEGVNWLAQRFHCQNGCILGDEMGLGKTCQTIALFIYLAGRLNDEGPFLILCPLSVLSNWKEEMQRFAPGLSCVTYAGDKEERACLQQDLKQESRFHVLLTTYEICLKDASFLKSFPWSVLVVDEAHRLKNQSSLLHKTLSEFSVVFSLLLTGTPIQNSLQELYSLLSFVEPDLFSKEEVGDFIQRYQDIEKESESASELHKLLQPFLLRRVKAEVATELPKKTEVVIYHGMSALQKKYYKAILMKDLDAFENETAKKVKLQNILSQLRKCVDHPYLFDGVEPEPFEVGDHLTEASGKLHLLDKLLAFLYSGGHRVLLFSQMTQMLDILQDYMDYRGYSYERVDGSVRGEERHLAIKNFGQQPIFVFLLSTRAGGVGMNLTAADTVIFVDSDFNPQNDLQAAARAHRIGQNKSVKVIRLIGRDTVEEIVYRKAASKLQLTNMIIEGGHFTLGAQKPAADADLQLSEILKFGLDKLLASEGSTMDEIDLESILGETKDGQWVSDALPAAEGGSRDQEEGKNHMYLFEGKDYSKEPSKEDRKSFEQLVNLQKTLLEKASQEGRSLRNKGSVLIPGLVEGSTKRKRVLSPEELEDRQKKRQEAAAKRRRLIEEKKRQKEEAEHKKKMAWWESNNYQSFCLPSEESEPEDLENGEESSAELDYQDPDATSLKYVSGDVTHPQAGAEDALIVHCVDDSGHWGRGGLFTALEKRSAEPRKIYELAGKMKDLSLGGVLLFPVDDKESRNKGQDLLALIVAQHRDRSNVLSGIKMAALEEGLKKIFLAAKKKKASVHLPRIGHATKGFNWYGTERLIRKHLAARGIPTYIYYFPRSK
notes: human ALC1 (CHD1L), residues 16-879; also called Human ALC1^fl (16-879) pNIC-CH2; source: E. coli Rosetta 2 (DE3), purified (HisTrap, Q HP/SP HP, Superdex 200)
